T1: GAI (Arabidopsis DELLA protein), yeast two-hybrid prey in pGADT7 AD vector (Arabidopsis, UniProt Q9LQT8 1-533)
T1 construct: also called AtDELLA
T1 sequence (looked up): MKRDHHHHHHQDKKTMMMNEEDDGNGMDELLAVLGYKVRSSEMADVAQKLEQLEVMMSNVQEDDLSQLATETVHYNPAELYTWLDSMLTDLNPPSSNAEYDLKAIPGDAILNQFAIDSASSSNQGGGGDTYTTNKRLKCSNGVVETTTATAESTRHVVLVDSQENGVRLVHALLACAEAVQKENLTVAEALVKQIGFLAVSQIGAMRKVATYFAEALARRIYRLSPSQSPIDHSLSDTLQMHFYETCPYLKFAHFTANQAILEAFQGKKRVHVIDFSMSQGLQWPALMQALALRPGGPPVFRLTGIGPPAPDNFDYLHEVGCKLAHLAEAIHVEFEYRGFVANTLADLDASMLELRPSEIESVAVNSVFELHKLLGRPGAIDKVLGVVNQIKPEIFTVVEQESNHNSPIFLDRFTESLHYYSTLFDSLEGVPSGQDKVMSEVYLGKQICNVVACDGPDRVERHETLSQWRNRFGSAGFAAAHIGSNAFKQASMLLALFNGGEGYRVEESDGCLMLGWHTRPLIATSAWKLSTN

T2: RGL1 (Arabidopsis DELLA protein), yeast two-hybrid prey in pGADT7 AD vector (Arabidopsis, UniProt Q9C8Y3 1-511)
T2 construct: also called AtDELLA
T2 sequence (looked up): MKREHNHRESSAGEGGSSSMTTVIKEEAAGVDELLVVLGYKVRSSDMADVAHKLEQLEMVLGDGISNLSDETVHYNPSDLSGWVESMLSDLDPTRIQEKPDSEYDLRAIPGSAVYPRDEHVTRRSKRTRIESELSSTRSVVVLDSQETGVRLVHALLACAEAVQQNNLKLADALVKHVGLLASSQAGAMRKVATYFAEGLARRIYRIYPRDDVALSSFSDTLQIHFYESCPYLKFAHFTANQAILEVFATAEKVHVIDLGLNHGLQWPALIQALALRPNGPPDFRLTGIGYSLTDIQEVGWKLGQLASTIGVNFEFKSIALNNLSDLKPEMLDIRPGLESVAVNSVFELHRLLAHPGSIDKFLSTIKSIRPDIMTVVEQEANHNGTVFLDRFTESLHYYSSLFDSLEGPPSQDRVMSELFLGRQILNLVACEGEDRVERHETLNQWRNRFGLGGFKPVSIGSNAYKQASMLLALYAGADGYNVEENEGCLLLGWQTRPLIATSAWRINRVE


Tests used:
[1] = target: T1, GAI (Arabidopsis DELLA protein), yeast …; experiment: yeast two-hybrid, AtGID1 bait and AtDELLA prey, 10^-5 M GA4 in medium; colony growth (Assay A) and beta-galactosidase activity (Assay B)
Procedure: Panel A) depicts AtGID1-AtDELLA interaction in the presence of GA in two types of yeast hybrid (Y2H) assays. Each AtGID1 was used as a bait while AtDELLA was a prey. GA₄ (10⁻⁵ M) was added to the medium. The bars indicates β-galactosidase activity when o-nitrophenol-β-D-galactopyranoside was used as a substrate (Assay B). The growth of each transformant in the defined medium for 2 days (Assay A) is shown beneath of each bar graph. The experiment was carried out in quadruplicate. The SD value shown in the figure was determined from three measurements. Panel B) depicts the dose response in AtGID1-RGA interaction in Assay B of Y2H. GA₄ (10⁻⁵ to 10⁻⁹ M) was added to the medium. The experiment was conducted in duplicates. The SD value shown in the figure was determined from three measurements. Panel C) depicts the results of an evaluation of the in vitro GA-binding potency of AtGID1 using AtDELLA. Left panel, 15 minutes after mixing AtGID1c (C), tritiated GA, with an excess amount of non-labeled GA (+) or without non-labeled GA (−). GAI (G) or RGA (R) was added, and then the GA-binding activity in each reaction mixture was measured according to the standard method. Recombinant protein originating from the vector (v) was used as a negative control. The experiment was carried out in duplicates. The SD value was determined from three measurements. Right panel, a profile of Western blotting for recombinant AtDELLA using an antibody to His tag. G, GAI; R, RGA; v, vector; M, molecular weight marker.
Arabidopsis has five DELLA proteins (RGA, GAI, RGL1, RGL2, and RGL3; collectively designated AtDELLA; Fleet, C. M., and Sun, T.-P. (2005) Curr. Opin. Plant Biol., 8, 77-85; Dill, A., and Sun, T. (2001) Genetics, 159, 777-785); therefore, there are 15 possible combinations of GID1/DELLA proteins. To verify the positive interactions between AtGID1-AtDELLA, two experiments were conducted using the yeast two hybrid (Y2H) system. […] In the second experiment (Assay B), β-galactosidase activity was measured, as reporter gene product of AtGID1-AtDELLA interactions. […]

[2] = target: T1, GAI (Arabidopsis DELLA protein), yeast …; experiment: yeast two-hybrid without GA (FIG. 11); member GAI named in the legend of FIG. 11
Procedure: (§1) Arabidopsis has five DELLA proteins (RGA, GAI, RGL1, RGL2, and RGL3; collectively designated AtDELLA; Fleet, C. M., and Sun, T.-P. (2005) Curr. Opin. Plant Biol., 8, 77-85; Dill, A., and Sun, T. (2001) Genetics, 159, 777-785); therefore, there are 15 possible combinations of GID1/DELLA proteins. To verify the positive interactions between AtGID1-AtDELLA, two experiments were conducted using the yeast two hybrid (Y2H) system. In the first experiment (Assay A), a viable colony assay using a defined medium in which only positive clones would survive was carried out. In the second experiment (Assay B), β-galactosidase activity was measured, as reporter gene product of AtGID1-AtDELLA interactions.
(§2) BD Matchmaker Two-hybrid System 3 (Clontech, Palo Alto, Calif., USA; now part of Takara Bio) was used in the Y2H experiments. After confirming the PCR products of the AtGID1 genes by sequencing, PCR products were cloned into pGBKT7 DNA-BD shuttle vector to construct bait plasmids. […]
(§3) Thus, GA₄ (10⁻⁵ M) was used and added to the medium. […] As described above, all AtGID1-AtDELLA interactions were detected in a GA-dependent manner; however, interactions between AtGID1b and some AtDELLAs were detected, albeit weakly, in the absence of GA (FIG. 11).

[3] = target: T2, RGL1 (Arabidopsis DELLA protein), yeast …; experiment: yeast two-hybrid without GA (FIG. 11); member RGL1 named in the legend of FIG. 11
Procedure: as §1, §2, §3

binding result [1]	binding result [2]	binding result [3]	Binder
binds			AtGID1a (At3g05120), yeast two-hybrid bait in pGBKT7 DNA-BD vector (receptor, not shown: small tags and cut ends, Bait fusion for the Y2H assays (BD Matchmaker Two-hybrid System 3); also called Arabidopsis GID1) MAASDEVNLIESRTVVPLNTWVLISNFKVAYNILRRPDGTFNRHLAEYLDRKVTANANPVDGVFSFDVLIDRRINLLSRVYRPAYADQEQPPSILDLEKPVDGDIVPVILFFHGGSFAHSSANSAIYDTLCRRLVGLCKCVVVSVNYRRAPENPYPCAYDDGWIALNWVNSRSWLKSKKDSKVHIFLAGDSSGGNIAHNVALRAGESGIDVLGNILLNPMFGGNERTESEKSLDGKYFVTVRDRDWYWKAFLPEGEDREHPACNPFSPRGKSLEGVSFPKSLVVVAGLDLIRDWQLAYAEGLKKAGQEVKLMHLEKATVGFYLLPNNNHFHNVMDEISAFVNAEC
	binds	binds	AtGID1b (At3g63010), yeast two-hybrid bait in pGBKT7 DNA-BD vector (receptor, not shown: small tags and cut ends, Bait fusion for the Y2H assays; also called Arabidopsis GID1) MAGGNEVNLNECKRIVPLNTWVLISNFKLAYKVLRRPDGSFNRDLAEFLDRKVPANSFPLDGVFSFDHVDSTTNLLTRIYQPASLLHQTRHGTLELTKPLSTTEIVPVLIFFHGGSFTHSSANSAIYDTFCRRLVTICGVVVVSVDYRRSPEHRYPCAYDDGWNALNWVKSRVWLQSGKDSNVYVYLAGDSSGGNIAHNVAVRATNEGVKVLGNILLHPMFGGQERTQSEKTLDGKYFVTIQDRDWYWRAYLPEGEDRDHPACNPFGPRGQSLKGVNFPKSLVVVAGLDLVQDWQLAYVDGLKKTGLEVNLLYLKQATIGFYFLPNNDHFHCLMEELNKFVHSIEDSQSKSSPVLLTP
